The target in test [1] is ED-B domain of human fibronectin, recombinant, with C-terminal six-histidine tag (human) (UniProt P02751). Put plainly: ELISA on coated ED-B, Scatchard assay (Beatty et al.). On the technique in general: ELISA stands for enzyme-linked immunosorbent assay.
For test [2], the target named is T1, ED-B domain of human fibronectin, recombinant, with C-terminal six-histidine tag (human, UniProt P02751 1266-1356).
T1 construct: Expressed in E. coli from pET-22b(+) (EcoRI/NotI); residues from the vector between ED-B and the tag are not described; also called EDB antigen; antigen ED-B
Kind of test: direct ELISA on coated ED-B, Scatchard analysis (Beatty et al.).

ED-B domain of human fibronectin, recombinant, with C-terminal six-histidine tag (human), sequence (P02751 other isoform, or with tags, fused parts or gaps limits assumed): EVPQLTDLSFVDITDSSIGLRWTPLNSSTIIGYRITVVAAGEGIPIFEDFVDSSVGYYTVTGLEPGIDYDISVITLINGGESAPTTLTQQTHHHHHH
T1 sequence (P02751 other isoform, or with tags, fused parts or gaps limits assumed): as above

The Kd is the constant that tells how readily two partners part at equilibrium. For the molecule L19-Fc (Fc fusion), the Kd in test [1] came to 6 nM.

B1: A11 antibody (Fc fusion)
chain: EVQLLESGGGLVQPGGSLRLSCAASGFTFSSYAMSWVRQAPGKGLEWVSRISPSGSSTYYADSVKGRFTISRDNSKNTLYLQMNSLRAEDTAVYYCARRMSYFDYWGQGTLVTVSSGGGGSGGGGSGGGGSSQSALTQPASVSGSPGQSITISCSGDSLGIGSNNYVSWYQQHPGKAPKLMIYDDNKRPSGVSNRFSGSKSGNTASLTISGLQAEDEADYYCQSWDGRQPVFGGGTKLTVLG
notes: Assayed as purified Fc-containing antibody from mammalian cells
In the case of B1, the “affinity relative to L19” value in test [2] is about 3 fold.

(Values after patent US20220089709A1 (HEFEI LIFEON PHARMACEUTICAL, published 2022).)
